First the molecules themselves.
T1: Dip1 (S. pombe WISH/DIP/SPIN90 family nucleation promoting factor) (S. pombe, UniProt O74771 1-374)
T1 sequence (looked up): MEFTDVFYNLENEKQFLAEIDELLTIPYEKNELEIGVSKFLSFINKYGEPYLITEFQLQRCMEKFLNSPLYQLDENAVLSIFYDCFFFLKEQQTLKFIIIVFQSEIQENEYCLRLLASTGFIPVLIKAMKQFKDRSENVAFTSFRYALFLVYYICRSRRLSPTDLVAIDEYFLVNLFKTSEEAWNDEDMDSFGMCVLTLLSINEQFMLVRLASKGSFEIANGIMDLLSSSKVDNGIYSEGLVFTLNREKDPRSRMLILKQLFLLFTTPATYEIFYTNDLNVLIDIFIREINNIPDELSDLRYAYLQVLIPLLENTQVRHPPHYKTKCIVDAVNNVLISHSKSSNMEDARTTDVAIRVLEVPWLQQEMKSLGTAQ

B1: ARPC2 subunit of S. pombe Arp2/3 complex (natural protein)
chain: MLSLDYNNIFIYELLTERFSSENPSSIDQVVTDFDGVTFHISTPEEKTKILISLSMKCYPELVNYGTLDLLKQIYGAYVHEPEMGYNFSILIDLQQLPATDEEKEQLAMSISMLKRNVLAAPFHRAFTKQAELADLARKDPENAPMLDKQATSQELMAIHYRDEETIVLWPEHDRVTVVFSTKFREETDRIFGKVFLQEFVDARRRPAIQTAPQVLFSYRDPPLEIRDIQGIQKGDDFGFVTFVLFERHFTPQNREDCISHIQVFRNTLHFHIKASKAYMHQRMRKRVADFQKVLNRAKPDVELERKTATGRSFVRA
B2: ARPC4 subunit of S. pombe Arp2/3 complex (natural protein)
chain: not shown

Test [1] has as its target T1, Dip1 (S. pombe WISH/DIP/SPIN90 family …). In words: cryo-EM structure.
Test [2] concerns the target B1. Put plainly: cryo-EM structure.

As to B1, in test [1], the binding result is recorded as “binds”.
As for B2, the binding result in test [1] and in test [2] was “binds” each time.

The record behind these values is publication PMC8717925 (Nature structural & molecular biology, 2020).
